As a reminder, the Kd is a measure of binding affinity in units of concentration. One may read the kon as the second-order rate constant of association. One may read the koff as the first-order rate constant of dissociation.

The source of these data is patent publication US20070154994A1 (NATIONAL RESEARCH COUNCIL OF CANADA, published 2007).

Experiment [1] has as its target T1, Recombinant human TGF-β1 (human, UniProt P01137 279-390).
T1 construct: It was amine coupled to the CM5 chip in SPR and used at 10 pM in the luciferase assay; also called transforming growth factor-β1
Nature of the experiment: SPR, TGF-β1 coupled, two-to-one stoichiometry model, Kd 2 (second site). The procedure: (§1) As described in Example 3, TGF-β1 was coupled to the biosensor surface (approximately 250 RUs) by a standard amino coupling procedure. […] After data preparation by the ‘double referencing’ method, the set of sensorgrams was globally fit using a kinetic model depicting the presence of two independent TβRIIED binding sites on the TGF-β1 molecule (two-to-one stoichiometry model).
(§2) Regeneration of the sensor chip for subsequent injections was accomplished by two pulses of HCl (20 mM, 120 seconds), followed by an EXTRACLEAN procedure performed according to the BIACORE manual.
(Surface plasmon resonance follows binding to a sensor surface in real time, without labels.)

The target in experiment [2] is T1, Recombinant human TGF-β1. Nature of the experiment: SPR, TGF-β1 coupled, two-to-one stoichiometry model, kass 1 (first site). The procedure:
as §1, §2

Experiment [3] concerns the target T1, Recombinant human TGF-β1. As to the kind of experiment: SPR, TGF-β1 coupled, two-to-one stoichiometry model, kdiss 2 (second site). As for the experimental part:
as §1, §2

Experiment [4] addresses T1, Recombinant human TGF-β1. As to the kind of experiment: SPR, TGF-β1 coupled, two-to-one stoichiometry model, kass 2 (second site). As for the experimental part: as §1, §2
Experiment [5] deals with T2, TβRIIED-E5 fusion protein (human).
T2 construct: Secreted from HEK 293SF cells; also called TβRII ED-E5 coil; E5 coiled-tagged TβRIIED
T2 chain: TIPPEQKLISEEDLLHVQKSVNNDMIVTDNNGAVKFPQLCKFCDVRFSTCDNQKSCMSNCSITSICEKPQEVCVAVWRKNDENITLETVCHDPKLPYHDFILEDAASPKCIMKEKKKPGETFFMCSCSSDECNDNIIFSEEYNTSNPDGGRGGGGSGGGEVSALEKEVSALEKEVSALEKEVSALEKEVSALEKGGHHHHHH
As to the kind of experiment: SPR (BIACORE), TβRIIED-E5 captured on the coupled anti hTGF-βRII antibody, TβRIIED-K5 injected at 50 nM. As for the experimental part: A solution of 0.1 M ethanolamine-HCl (pH 8.5, 35 μL) was then used to block the remaining activated carboxyl groups.
Three studies were then performed at a flow rate of 5 μL/min: [0183] […] [0184] […] [0185]

Experiment [6] has as its target T1, Recombinant human TGF-β1. Nature of the experiment: SPR, TGF-β1 coupled, two-to-one stoichiometry model, Kd 1 (first site). As for the experimental part:
as §1, §2

Experiment [7] deals with T1, Recombinant human TGF-β1. As to the kind of experiment: SPR, TGF-β1 coupled, two-to-one stoichiometry model, kdiss 1 (first site). As for the experimental part:
as §1, §2

T1 sequence (P01137 279-390 limits assumed): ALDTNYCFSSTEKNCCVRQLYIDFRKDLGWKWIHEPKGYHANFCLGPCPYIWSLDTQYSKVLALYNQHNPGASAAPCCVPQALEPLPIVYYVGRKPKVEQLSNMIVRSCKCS

B1: TβRIIED-K5 fusion protein (receptor)
chain: TIPPEQKLISEEDLLHVQKSVNNDMIVTDNNGAVKFPQLCKFCDVRFSTCDNQKSCMSNCSITSICEKPQEVCVAVWRKNDENITLETVCHDPKLPYHDFILEDAASPKCIMKEKKKPGETFFMCSCSSDECNDNIIFSEEYNTSNPDGGRGGGGSGGGKVSALKEKVSALKEKVSALKEKVSALKEKVSALKEGGHHHHHH
notes: Secreted from HEK 293SF cells; The monomer was separated from aggregates with a Centriprep 30; also called K5 coiled-tagged TβRIIED; monomeric TβRIIED-K5
Consider B1, for which the figures for the Kd in the experiment with Recombinant human TGF-β1 [1] and in the experiment with Recombinant human TGF-β1 [6] were 1250 nM and 90 nM, respectively. For the same molecule, the kon with Recombinant human TGF-β1 [2] came out at 365000 M⁻¹ s⁻¹; with Recombinant human TGF-β1 [4], 1900 M⁻¹ s⁻¹. Besides, the koff with Recombinant human TGF-β1 [3] stood at 0.0026 s⁻¹; with Recombinant human TGF-β1 [7] it was 0.033 s⁻¹. In experiment [5], the binding result was “binds”.
